Laboratory results: article PMC6925134

Legend:
[1] = target: RNF208 (UniProt Q9H0X6); assay: anti-Flag co-IP, immunoblot; settings: reference: wild type; sites S39
[2] = target: RNF208 (UniProt Q9H0X6); assay: anti-Flag co-IP, Myc immunoblot; settings: reference: wild type; sites S39

binding against the reference [1]: weaker | binding against the reference [2]: lost
Substance: Vimentin (from UniProt P08670) S39A
